Patent US20210198377A1 (XDCEXPLORER SHANGHAI, published 2021)

T1: mouse TPBG (full length, on cells) (mouse, UniProt Q9Z0L0 32-426)
T1 construct: whole, on cells; On transfected CHO-K1 cells; also called mTPBG; CHO-K1-mTPBG
T1 sequence (looked up): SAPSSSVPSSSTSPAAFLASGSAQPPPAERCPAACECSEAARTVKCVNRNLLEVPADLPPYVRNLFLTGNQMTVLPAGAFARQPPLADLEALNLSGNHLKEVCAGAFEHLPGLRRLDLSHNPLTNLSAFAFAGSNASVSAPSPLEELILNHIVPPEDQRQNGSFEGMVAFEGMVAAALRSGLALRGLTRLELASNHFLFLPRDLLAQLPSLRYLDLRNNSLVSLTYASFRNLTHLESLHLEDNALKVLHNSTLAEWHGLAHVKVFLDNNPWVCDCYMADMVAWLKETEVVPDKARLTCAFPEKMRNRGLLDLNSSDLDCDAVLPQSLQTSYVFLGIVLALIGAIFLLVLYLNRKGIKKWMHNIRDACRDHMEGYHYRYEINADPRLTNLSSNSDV

T2: human TPBG-hFc (human, UniProt Q13641 32-355)
T2 construct: also called immunogen A; hFc tagged TPBG protein; not shown: The human IgG Fc fragment of the pCpC vector (Invitrogen V044-50) and any linker to it
T2 sequence: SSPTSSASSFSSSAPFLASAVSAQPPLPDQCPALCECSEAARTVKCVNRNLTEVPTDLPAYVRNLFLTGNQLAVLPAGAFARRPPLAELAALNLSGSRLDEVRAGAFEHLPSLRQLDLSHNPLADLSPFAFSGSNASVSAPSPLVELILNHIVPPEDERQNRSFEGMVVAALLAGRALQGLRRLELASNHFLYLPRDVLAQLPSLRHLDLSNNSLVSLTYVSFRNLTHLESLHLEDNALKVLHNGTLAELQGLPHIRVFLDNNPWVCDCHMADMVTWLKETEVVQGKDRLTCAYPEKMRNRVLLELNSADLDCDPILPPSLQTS


Columns and labels:
[1] = biological target: T1, mouse TPBG (full length, on cells); assay: FACS on CHO-K1-mTPBG cells
Source text: The stable cell lines CHO-k1-hTPBG, CHO-k1-cTPBG, CHO-k1-mTPBG (i.e. the CHO-k1-hTPBG 3A2F1, CHO-k1-cTPBG 3F13G4 and CHO-k1-mTPBG 3A3 shown in table 7) and CHO-K1 cells were expanded to a 90% of confluency in T-75 cell culture flasks, the culture medium were removed, and cells were then rinsed twice with HBSS buffer (Hanks Balanced Salt Solution, purchased from Invitrogen) and lysed with enzyme-free cell dissociation buffer (Versene solution purchased from Life technology) and harvested. Harvested cells were rinsed with HBSS buffer twice and counted before diluting with HBSS buffer to 2×10⁶ cells /mL, and 10% goat serum blocking buffer was then added, wherein the percentage is the mass percentage. Cells were incubated on ice for 30 min, and then washed twice with HBSS buffer by centrifugation. The harvested cells were resuspended with FACS buffer (HBSS+1% BSA, wherein the percentage is mass percentage) to a concentration of 2×10⁶ cells /mL. 100 μL per well of the cells was aliquoted to 96-well FACS reaction plates, and 100 μL per well of test sample—the purified TPBG antibody obtaining from Embodiment 2 was added before incubating on ice for 2 h. The plate was washed with the FACS buffer twice by centrifugation, and 100 μL per well of fluorescence (Alexa 488) labeled secondary antibody (purchased from Invitrogen) was then added and incubated on ice for 1 h. The plate was washed with the FACS buffer for three times by centrifugation, follow by resuspending in 100 μL of fixation buffer (4% (v/v) paraformaldehyde). Cells were washed with FACS buffer twice after 10 min, follow by resuspending with 100 μL of FACS buffer. The results were measured and analyzed by FACS (FACS Calibur, purchased from BD). Data analysis was performed by software (CellQuest) to obtain mean fluorescence intensity (MFI) of the cells, follow by calculating EC50 value by software (GraphPad Prism) analysis and data fitting. The analysis results were shown in Table 8 and FIGS. 7-10, and data in FIGS. 7-10 show the mean fluorescence intensity (MFI) of cells.

human TPBG-hFc = biological target: T2, human TPBG-hFc; assay: ELISA, coated human TPBG-hFc 1.0 ug/mL; antibody 0.0002 nM
Description: The purified immunogen A (as for its method of preparation please refer to step 1 in Example 1) diluting with PBS to a final concentration of 1.0 μg/mL was aliquoted into a 96-well ELISA plate at 100 μL per well, and sealed with a parafilm and incubated at 4° C. overnight. The plate was washed twice with plate washing buffer (PBS containing 0.01% (v/v) Tween 20), and blocked with blocking buffer (PBS containing 0.01% (v/v) Tween 20 and 1% (w/w) BSA) at room temperature for 2 h. The blocking buffer was discarded, and 100 μL per well of the purified antibody obtained from Embodiment 2 was added. After incubating at 37° C. for 2 h, the plate was washed for three times with plate washing buffer (PBS containing 0.01% (v/v) Tween 20). HRP (horseradish peroxidase)-labeled secondary antibody (purchased from Sigma) was added and incubated at 37° C. for 2 h, and the plate was washed for three times using plate washing buffer (PBS containing 0.01% (v/v) Tween 20). 100 μL of TMB substrate was aliquoted into each well, incubated at room temperature for 30 min, and 100 μL of stop buffer (1.0N HCl) per well was subsequently added. A₄₅₀ₙₘ values were read using the ELISA plate reader (SpectraMax 384plus purchased from Molecular Device), and the results were shown in FIG. 6 and table 6. […] In Table 6 the IgG control herein is a mice IgG control, the data in the Table are OD₄₅₀ₘₙ values, and Blank means the OD₄₅₀ₘₙ value when there is only PBS buffer in the plate.

| Binder | EC50 [1] [nM] | OD450nm (human TPBG-hFc) [OD450nm] | binding result [1] |
| --- | --- | --- | --- |
| 103E2E9C2 (antibody, V domains shown, Mouse hybridoma antibody purified from culture supernatant; also called TPBG antibody; lead antibody) VH: EVQLQQSGPVLVKPGASVKMSCEASGYSFIDYYMSWVKQSRGRSLEWIGVFNPYSGEIIYNQKFKGKATLTVDKSSSTAYMELSSLTSEDSGVYSCARLRISYYAIDYWGQGTSVAVSS VL: ENVLTQSPAIMSASPGEKVTMTCRATSSVSSGHFHWYQQKSGASPKVWIYSTSNLASGVPARFSGSGSGTSFSLTISSVEAEDVATYFCQQYSGYPLTFGGGTKLEIK | – | 0.1 | no binding |
| 12B12C7C3 (antibody, V domains shown, Mouse hybridoma antibody purified from culture supernatant; also called TPBG antibody; lead antibody) VH: DVQLVESGGGLVQPGGSRKLSCAASGFTFSNFGMHWVRQAPEKGLEWVAYISSGSTSFYYADTVKGRFTISRDNPKNTLFLQMTSLRSEDTAMYYCSRTNSLLRGFFDAWGAGTTVTVSS VL: DIVLTQSPASLAVSLGQRATISCRASQSVSSSSYTYLHWYQQKPGQPPKLLIKSASNLESGVPARFSGTGSGTDFTLNIHPVEEEDTATYYCQHSWEIPLTFGAGTKLELK | – | 0.1 | no binding |
| 37H9C5G2 (antibody, V domains shown, Mouse hybridoma antibody purified from culture supernatant; also called TPBG antibody; lead antibody) VH: QVQLQQSDAELVRPGASVKMSCKVSGYTFTDHTIHWMKQRPEQGLEWIGYIYPRDGSGTYNEKFKGKATLTADKSSSTAYMQLNSLTSEDSAVYFCARDGSSHYWYFDVWGTGTTVTVSS VL: DIQMTQSPASLSASVGETVTITCRASEIIYNYLAWYQQKQGKSPQLLVYNAKTLAEGVPSRFSGSYSGTQFSLNINSLQSEDFGIYYCQHHHDTPLTFGAGTKLDLK | 11.1 | 0.09 | – |
| 36A10D8B12 (antibody, V domains shown, Mouse hybridoma antibody purified from culture supernatant; also called TPBG antibody; lead antibody) VH: DVQLQESGPGMVKPSQSLSLTCTVTGYSITSGYDWHWIRHFPGNKLEWMGYISYSGNTNYNPSLKSRISITHNTSKNHFFLRLNSVTTEDTATYYCARGYGNWDAMDYWGQGTSVTVSS VL: DIVMTQSQKFMSTSVGDRVSVTCKASQIVDTNVAWYQQKPGQSPKALISSASYRYSGVPDRFTGSGSGTDFTLTISNVQSEDLAEYFCQQYNSYPLTFGAGTKLELT | – | 0.16 | no binding |

More lines, now with the values ahead:

| EC50 [1] [nM] | OD450nm (human TPBG-hFc) [OD450nm] | binding result [1] | Binder |
| --- | --- | --- | --- |
| 9.07 | 0.08 | – | 5G4H10G5 (antibody, V domains shown, Mouse hybridoma antibody purified from culture supernatant; also called TPBG antibody; lead antibody) VH: EVQLVESGGDLVQPGGSLKLFCAASGFTFSTYGLSWVRQTPDKRLELVATITNNDGSAYYPDSVKGRFTISRDKAKNTLFLQMTSLKSEDTAMYYCARETGFGSSYLFDYWGQGTLVTVSA VL: NIVMTQTPKFLLVSAGDRVTITCKASQSVSNDVAWYQQKPGQSPKLLIYFATNRYTGVPNRFTGSGYGTEFTFTISSVQAEDLAVYFCQQDYSSPTFGGGTKLEIK |
| – | 0.11 | no binding | 106D5G3D10 (antibody, V domains shown, Mouse hybridoma antibody purified from culture supernatant; also called TPBG antibody; lead antibody) VH: EVQLVESGGGLVKPGGSLKLSCAASGFTFSDYGMHWVRQAPEKGLEWVGYISSGTYVVYYADTVKGRFTISRDNAKNTLFLQMTSLRSEDTAIYYCSTYGSNPFDYWGQGTTLTVSS VL: QLVLTQSPAIMSASPGEKVTITCSATSSVSSMHWFQQKPVTSPKLWIYSTSNLASGVPTRFSGSGSGTSYSLTISRMEAEDAATYYCQQRSGYPPIFTFGSGTKLEIK |
| – | 0.1 | no binding | 28D4E6A9 (antibody, V domains shown, Mouse hybridoma antibody purified from culture supernatant; also called TPBG antibody; lead antibody) VH: DVQLVESGGGLVRPGGSLKLSCAASGFTFSNYVMSWARQSPEKRLEWVAEISTGGSHTYYSDTVTGRFTISRDNAKKALYLEMSSLRSEDTAIYYCIMFYYGSSYSMDYWGQGTSVTVSS VL: DIQMTQSTSSLSASLGDRITISCRASQDIRNYLNWYQQKPDGTVKLLIYHTSRLHSGVPSRFSGSGSGTDYSLTISNLEQEDIATYFCQQGDTLPLTFGAGTRLELK |
| 1.88 | 0.09 | – | 39A11G5F2 (antibody, V domains shown, Mouse hybridoma antibody purified from culture supernatant; also called TPBG antibody; lead antibody) VH: QVQLQQSGAELMKPGASMRLSCKATGYTFTGYWLEWIKRRPGHGLEWIGEILPGRGSTNYNEKFKGKATFTAETSSNTAYMQLTSLTTEDSAIYYCARGGRDFDNWGQGTTLTVSS VL: DIQMTQSTSSLSASLGDRVTISCSASQGINNHLNWYQQKPDGTVKLLIYYTSSLHSGVPSRFSGSGSGTDYSLTISNLEPEDIAIYYCQQFSKLPYTFGGGTKVEMK |
| – | 0.09 | no binding | 52C9E9F6 (antibody, V domains shown, Mouse hybridoma antibody purified from culture supernatant; also called TPBG antibody; lead antibody) VH: QVQLQQSGAELMKPGASVKLSCKATGYTFTGYWIEWIKQRPGHGLEWIGEILPGRGSTDYNEKFKGKATFTADTSSNTAYMQLSSLTTEDSAIYYCTRGRLDFTYWGQGTLVTVSA VL: DIQMTQTTSSLSASLGDRVTISCSASQGIRNYLNWYQQKPDGTVKLLIYYTSSLHSGVPSRFSGSGSGTDYSLTISNLEPEDIATYYCQQYSKVPWTFGGGTKLEIK |
| – | 0.11 | no binding | 99E12C7H1 (antibody, V domains shown, Mouse hybridoma antibody purified from culture supernatant; also called TPBG antibody; lead antibody) VH: QIQLVQSGPELKKPGETVKISCKPSGYTFTAYGLSWVKQAPGQGFQWMGWINTYSGVPTYTDDFKGRFAFSLETSAGTASLQITNLKNEDTATYFCARSSIPPFEYWGPGTTLTVSS VL: SFVMTQSPKFLLVSVGDRVTITCKASQSVSNDVAWYQQKPGQPPRVLIYFASNRYTGVPDRFTGSGYGTDFTFTISTVQAEDLALYFCQQDYSSPWTFGGGTKLEIK |
